Test results taken from paper doi:10.1101/847806 (bioRxiv, 2019).
Blank lines part the entries; values can stand above or below the binder they belong to.

What was measured:
[1] = target: OTUB1 wild-type (UniProt Q96FW1 1-271); test: ITC
[2] = target: OTUB1 (C91S), catalytically inactive mutant (UniProt Q96FW1 1-271, C91S); test: ITC
Sequence of OTUB1 (C91S), catalytically inactive mutant (Q96FW1 whole entry C91S): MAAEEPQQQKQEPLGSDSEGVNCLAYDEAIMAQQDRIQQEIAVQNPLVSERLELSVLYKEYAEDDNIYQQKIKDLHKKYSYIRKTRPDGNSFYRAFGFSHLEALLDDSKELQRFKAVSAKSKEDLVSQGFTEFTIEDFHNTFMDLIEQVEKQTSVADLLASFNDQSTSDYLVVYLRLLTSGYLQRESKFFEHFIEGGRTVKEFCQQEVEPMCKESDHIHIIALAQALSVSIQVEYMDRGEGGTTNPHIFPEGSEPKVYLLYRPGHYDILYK

Sequence of OTUB1 wild-type (Q96FW1 whole entry): as the sequence (Q96FW1 whole entry C91S) above, with S91C counted along it

- binding result [1]: binds
- binding result [2]: binds
B1: UBE2D1 (enzyme)
chain: not shown

- Kd [2]: 8.1 µM
B2: UBE2N (enzyme, human, UniProt P61088 1-152, looked up)
chain: MAGLPRRIIKETQRLLAEPVPGIKAEPDESNARYFHVVIAGPQDSPFEGGTFKLELFLPEEYPMAAPKVRFMTKIYHPNVDKLGRICLDILKDKWSPALQIRTVLLSIQALLSAPNPDDPLANDVAEQWKTNEAQAIETARAWTRLYAMNNI

- binding result [2]: binds
B3: UBE2E1 (enzyme, human, UniProt P51965 1-193, looked up)
chain: MSDDDSRASTSSSSSSSSNQQTEKETNTPKKKESKVSMSKNSKLLSTSAKRIQKELADITLDPPPNCSAGPKGDNIYEWRSTILGPPGSVYEGGVFFLDITFTPEYPFKPPKVTFRTRIYHCNINSQGVICLDILKDNWSPALTISKVLLSICSLLTDCNPADPLVGSIATQYMTNRAEHDRMARQWTKRYAT
